Assay: soluble fraction after stress (log2 fold change); higher = more stays soluble; pooled small domains, quantitative proteomics
Conditions: stress: 50 degC
Method in brief: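 Pooled custom libraries of small protein domains were each held under stress at 50°C. The read-out, high-throughput quantitative proteomics, tracked how much of each protein stayed soluble. This is reported as a base-two log fold change used to indicate aggregation propensity. Higher values mean more protein remains in solution.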
In the case of “HMGVSLREVPVAEHGDWIGRPIKELGIPAEVLIVLVRRADGTTVVPKGGTVLQQGDMLVVNEWEE”, the “soluble fraction (log2)” value is reported as -0.426.
With “HMAGRKMMVMANNLSVRKSANSLSEKLADLSRGDTVEYISSTNGWNKVRYKGQIGYVSSYYLKDTGEEVE” the “soluble fraction (log2)” value was -0.0409.
In the case of “HMKLNETIAEARKRKGLTQEQLAQKLYVTRQAVSRWERGEVVPGIDMLKLIAITLEEPIVHLL”, the “soluble fraction (log2)” value is reported as -0.769.
With “HMSVTSIEGRVVYDENANKIGIAKQVGIDSTQSMVLVLTKNDGTEGSISWNNIKKIGEIILLGN” the “soluble fraction (log2)” value was -0.369.
In the case of “HMLPDLQKAIDTFLYEVDSRINTSFEELIDKLNSKEEAVAFFLALLEAVRWGFIKAEQESNSINIKK”, the “soluble fraction (log2)” value is reported as -0.565.
For “HMVKNYYEILEVDKKASPEVIEKAYKTLAKKYHPDLQEAENNGQYEEKMKEINEAYSVLSDEFKRRTYDEQ”, the “soluble fraction (log2)” value was 0.114.
In the case of “HMSTINGIEKYLSSGLIPYIGPKTAKRIVEKFGLDTLEIIQYNPERLKEIEGIGDKKLKKIVEAFEEQG”, the “soluble fraction (log2)” value is reported as -0.102.
In the case of “HMTDFESYTVRVTATNLNIRKGAGTNFHSAGYIKPGVYTIVEEADGKGATRWGKLKSGMGWISLDYAKK”, the “soluble fraction (log2)” value is reported as -0.763.
For “HMKPEQIELTFSGTTAMRLDKFLAENQPGLSRAKLQAIISSGSVEVNGKVITKQAFKLDPGDLVKALIPE”, the “soluble fraction (log2)” value was 0.0295.
For “HMIVVMKTSASERDLQEVIARIEQFGFATRSIVGSERATVSVLGAPLPDSLQEALERMPGVEEVVRITK”, the “soluble fraction (log2)” value was -0.344.
With “HMTSSVIIPKLIGKTEEEAKVALAGLNVQVLYETHGDQANGIVIKQSFEEGTKVIKGVSIVITVNKVS” the “soluble fraction (log2)” value was 0.0698.
In the case of “HMTTMYKSDVKGINYDVKAKSWFLRITFNGNQIPIGHFKTEEDAINVKQQLIPYIESKDYTSILAVKAKYS”, the “soluble fraction (log2)” value is reported as -0.4.
With “HMQTTKTGTITASSLYVRSGASTSHKVLGTVSKGKTVQIKDTQDGWHKISYNGDHGWVSGKYVSTT” the “soluble fraction (log2)” value was no less than 0.62.
With “HMEFTKSPLDEIAGVGPARKRALLAAFGTAKAVSQAALADLEKTPGVNAATARLVYAHFHEK” the “soluble fraction (log2)” value was -0.143.
In the case of “HMSSIVLTARSGRAALAYRVKSIGVDLSKDQLDLVYKTFLGFADKKKEIIDTDIPQILKASGI”, the “soluble fraction (log2)” value is reported as -1.92.
For “HMTKDVIEIVDGNKFVFHKTIATDSVSSVINKYHISEADFRTWNELTGDMKVGEEYIVQLSLH”, the “soluble fraction (log2)” value was -1.26.
For “HMSTTYLNEGDRITLTDSVNIRTSMSETADRVGLAYQGDVVTVIMSYAEGWTKVSWNGQTGYAKTEYL”, the “soluble fraction (log2)” value was -0.617.
With “HMKGLKERLLYFIEYKGLPVQMFEKIVGLSNAAVSKMGDNTRRSTIDKISKSFPELDVNWLLTGQGEMLSY” the “soluble fraction (log2)” value was -0.255.
With “HMEYYIMPVANLHKVVVDGKDMSNLISNNAIAVKANVIDEGQIQIKPGEIIITTPAGVSPEEAVRSP” the “soluble fraction (log2)” value was 0.441.
For “HMVTPAQQARDTLLGALVGLARATTSEPKTDDTDVVLNAGLRLAAQPDAPEERLQRMLAIVQTEKHRV”, the “soluble fraction (log2)” value was 0.116.
For “HMQYYITKIANYDQVSPNLLVRTAEGQYMVKTNADILDTDVTKLTEEEIRKDWGYLFENGFSELV”, the “soluble fraction (log2)” value was -0.814.
For “HMSTYTETETAYLKAYSAAGVDGKISDSERGILNMTAEALGITVERTTELEAMFNLTVEEEA”, the “soluble fraction (log2)” value was -0.118.
In the case of “HMDSTLTNEIYNELYRAITHQELKPGQNLTLTMLKKQFNVSHTPIREALTRLSADGLVTYHPNKGMKVT”, the “soluble fraction (log2)” value is reported as -0.274.
With “HMDKKIVGVNAGKVWQALNEVTEISIVELAEKLNLSVESTALAAGWLAREDQISIERKNGTIELQRKN” the “soluble fraction (log2)” value was -0.263.
With “HMKAMIIVMKPGADMATISKVLKTIETNGFKPHLSKGEETTVIGVIGDERKLNPDIFSTLEGVERIVPVA” the “soluble fraction (log2)” value was 0.255.
With “HMNKNQIGTNAGIVWKLLSDNVHWEYDKLKHASGLSDRDLNAAIGWLAREDKIDFDIDEQHDRLFL” the “soluble fraction (log2)” value was -0.395.
With “HMARTDVKLREVAQELLRMGLLEESLRPHLYRTALASMERLNATLEPLDLIARADEIRGLVFLAVRH” the “soluble fraction (log2)” value was -2.44.
For “HMPDAIPLETIIKNVNVLAGFLINSKTFTEDDIVMAYNNIMKIKGDHTDEKTLTNDVYTLLTEMN”, the “soluble fraction (log2)” value was -0.469.
In the case of “HMKIRKAVIPAAGLGTRVLPASKSIPKEMLPIVDKPVIQYIVEEAVKAGITEILIITGRGKGAIEDHFDRS”, the “soluble fraction (log2)” value is reported as -0.122.
In the case of “HMRPPLEWGTHGEITTRTVASGYVRASARVRLWDGELQRMTATASTASDARASLQHRIAERLRFSEL”, the “soluble fraction (log2)” value is reported as -1.46.

Reference: the domain aggregation screens of Martell et al. (2025)
